The target in this experiment is hFc-tagged NKG2A/CD94 protein (NKG2A/CD94-hFc), immunogen A (human) (UniProt P26715). The experiment in a line: ELISA on NKG2A/CD94-hFc protein (immunogen A), OD 450 nm.
Chain of hFc-tagged NKG2A/CD94 protein (NKG2A/CD94-hFc), immunogen A (human) (P26715 94-233 limits assumed, chain 1 of 2): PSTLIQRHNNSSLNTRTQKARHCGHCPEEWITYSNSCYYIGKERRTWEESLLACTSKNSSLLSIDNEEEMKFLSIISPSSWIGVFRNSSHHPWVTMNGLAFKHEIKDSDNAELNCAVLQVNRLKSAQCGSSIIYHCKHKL
Chain of hFc-tagged NKG2A/CD94 protein (NKG2A/CD94-hFc), immunogen A (human) (chain, as listed by the source limits assumed, chain 2 of 2): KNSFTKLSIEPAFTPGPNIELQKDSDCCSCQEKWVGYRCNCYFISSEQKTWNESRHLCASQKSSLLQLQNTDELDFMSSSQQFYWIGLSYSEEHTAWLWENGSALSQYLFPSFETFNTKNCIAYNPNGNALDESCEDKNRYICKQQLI

As usually defined, the EC50 (read off the curve) is the concentration that produces a half-maximal response. For the substance control antibody-2, the EC50 (read off the curve) came to 0.1 nM.

control antibody-1 displayed a half-maximal effective concentration (EC50 (read off the curve)) of 0.06 nM.

For the origin of these results see patent US20220259306A1.
